The target in experiment [1] is T1, ectodomain of human CD98hc (human, UniProt P08195 105-529).
T1 chain: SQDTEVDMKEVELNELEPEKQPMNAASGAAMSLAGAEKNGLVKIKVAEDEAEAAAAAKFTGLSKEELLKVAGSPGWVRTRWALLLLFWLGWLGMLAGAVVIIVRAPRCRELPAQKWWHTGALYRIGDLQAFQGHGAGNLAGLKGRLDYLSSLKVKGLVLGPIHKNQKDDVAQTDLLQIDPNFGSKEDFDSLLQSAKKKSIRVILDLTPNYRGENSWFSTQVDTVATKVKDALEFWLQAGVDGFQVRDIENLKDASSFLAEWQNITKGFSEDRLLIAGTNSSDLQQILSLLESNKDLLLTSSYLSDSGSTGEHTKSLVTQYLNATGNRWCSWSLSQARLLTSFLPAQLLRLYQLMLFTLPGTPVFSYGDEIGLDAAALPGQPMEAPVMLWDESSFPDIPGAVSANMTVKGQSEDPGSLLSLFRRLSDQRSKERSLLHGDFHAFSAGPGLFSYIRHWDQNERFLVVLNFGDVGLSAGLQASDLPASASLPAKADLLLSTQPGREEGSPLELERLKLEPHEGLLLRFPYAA
The experiment in a line: ELISA, expression medium of VNAR-hFc on coated protein. A general note: An ELISA detects its analyte on a solid surface through an enzyme-linked reagent.

Experiment [2] deals with T1, ectodomain of human CD98hc. Kind of experiment: ELISA, purified VNAR-Fc titrated on coated CD98hc.
The target of experiment [3] is T1, ectodomain of human CD98hc. The experiment in a line: ELISA, VNAR-hFc titrated on coated human CD98hc.

What is called EC50 is the concentration that produces a half-maximal response. A higher EC50 goes with lower potency in that assay.

B1: VNAR clone H6 fused N-terminally to human IgG1 Fc (VNAR-hFc) (Fc fusion)
chain: ARVDQTPQTITKEEGESLTINCVLRTHSNALASTSWYRKKSGSTREETISKGGRYVETVNSGSKSFSLRINDLTVEDSGTYRCNVYAFLEIQPNIYHEFDVYGDGTAVTVNA
notes: Bivalent VNAR-Fc from Expi293 cells; not shown: human IgG1 Fc (hinge, CH2 and CH3) as encoded by vector pFUSE-hIgG1e3-Fc2
Regarding B1, the “Binding [relative units]” value in experiment [1] is 3.31 relative units. This molecule also displayed an EC50 in experiment [2] of 6 nM.

B2: VNAR clone G3 fused N-terminally to human IgG1 Fc (VNAR-hFc) (Fc fusion)
chain: ARVDQTPQTITKETGESLTINCVLRDNNCALSTTYWYRKKSGSTNEENISKGGRYVETVNSGSKSFSLRINDLTVEDSGTYRCKVHFFPSFCNSTSIRSVDVYGGGTVVTVNA
notes: as for B1
Regarding B2, the “Binding [relative units]” value in experiment [1] is 1.48 relative units. The molecule further had an EC50 in experiment [2] of 107 nM.

B3: VNAR clone D1 fused N-terminally to human IgG1 Fc (VNAR-hFc) (Fc fusion)
chain: ARVDQTPQTITKEEGESLTINCVLRHNYSALASTSWYRKKSGSTREETISKGGRYVETVNSGSKSFSLRINDLTVEDSGTYRCNVYGISFIEEKIRYDFDVYGDGTAVTVNA
notes: Bivalent VNAR-Fc from Expi293 cells; also called D1-hFc; not shown: human IgG1 Fc (hinge, CH2 and CH3) as encoded by vector pFUSE-hIgG1e3-Fc2
Regarding B3, the “Binding [relative units]” value in experiment [1] stood at 3.5 relative units. The molecule also returned an EC50 in experiment [2] of 28 nM.

B4: VNAR clone F1 fused N-terminally to human IgG1 Fc (VNAR-hFc) (Fc fusion)
chain: ARVDQTPQTITKEEGESLTINCVLRVHGRALASTSWYRKKSGSTREETISKGGRYVETVNSGSKSFSLRINDLTVEDSGTYRCNVYGLSSGDIEGVKKIDVYGDGTAVTVNA
notes: Bivalent VNAR-Fc from Expi293 cells; also called F1-hFc; not shown: human IgG1 Fc (hinge, CH2 and CH3) as encoded by vector pFUSE-hIgG1e3-Fc2
Consider B4, for which, in experiment [1], the “Binding [relative units]” value was 3.76 relative units. Further, the response in experiment [2] was half-maximal at 3 nM (EC50).

B5: F12 variant F12-B12 as VNAR-hFc fusion (Fc fusion)
chain: ARVDQTPQTITKEEGESLTINCVLRVHGRALASTSWYRKKSGSTREETISKGGRYVETVNSGSKSFSLRINDLTVEDSGTYRCNVNGLSSGDIEGVKKLDVYGDGTAVTVNA
notes: not shown: human IgG1 Fc (hinge, CH2 and CH3) as encoded by vector pFUSE-hIgG1e3-Fc2
In the case of B5, the EC50 in experiment [3] worked out at 10 nM.

B6: F12 variant F12-G04 as VNAR-hFc fusion (Fc fusion)
chain: ARVDQTPQTITKEEGESLTINCVLRVHGRALASTSWYRKKSGSTREETISKGGRYVETVNSGSKSFSLRINDLTVEDSGTYRCNVNGLSSGDIEGVKKIDVYGDGTAVTVNA
notes: as for B5
Regarding B6, the EC50 in experiment [3] came out at 30 nM.

B7: F12 variant F12-H04 as VNAR-hFc fusion (Fc fusion)
chain: ARVDQTPQTITKEEGESLTINCVLRVHGRALASTSWYRKKSGSTREETISKGGRYVETVNSGSKSFSLRINDLTVEDSGTYRCNVYGLMQGDIEGVKKIDVYGDGTAVTVNA
notes: as for B5
As for B7, the EC50 in experiment [3] was determined as 20 nM.

B8: F12 variant F12-C01 as VNAR-hFc fusion (Fc fusion)
chain: ARVDQTPQTITKEEGESLTINCVLRVHGRALASTSWYRKKSGSTREETISKGGRYVETVNSGSKSFSLRINDLTVEDSGTYRCNVYGLSSGDSEGVKKIDVYGDGTAVTVNA
notes: as for B5
As for B8, the EC50 in experiment [3] stood at 30 nM.

B9: F12 variant F12-A01 as VNAR-hFc fusion (Fc fusion)
chain: ARVDQTPQTITKEEGESLTINCVLRVHGRALASTSWYRKKSGSTREETISKGGRYVETVNSGSKSFSLRINDLTVEDSGTYRCNVNGLSSGDKEGVKKIDVYGDGTAVTVNA
notes: as for B5
B9 gave an EC50 in experiment [3] of 10 nM.

B10: F12 variant F12-E03 as VNAR-hFc fusion (Fc fusion)
chain: ARVDQTPQTITKEEGESLTINCVLRVHGRALASTSWYRKKSGSTREETISKGGRYVETVNSGSKSFSLRINDLTVEDSGTYRCNVNGLSSGDQEGVKKIDVYGDGTAVTVNA
notes: as for B5
B10: the EC50 in experiment [3] stood at 40 nM.

B11: F12 variant F12-G02 as VNAR-hFc fusion (Fc fusion)
chain: ARVDQTPQTITKEEGESLTINCVLRVHGRALASTSWYRKKSGSTREETISKGGRYVETVNSGSKSFSLRINDLTVEDSGTYRCNVYGLMNVDIEGVKKIDVYGDGTAVTVNA
notes: as for B5
In the case of B11, the midpoint of the response in experiment [3], the EC50, lay at 10 nM.

B12: VNAR clone F12 fused N-terminally to human IgG1 Fc (VNAR-hFc) (Fc fusion)
chain: ARVDQTPQTITKEEGESLTINCVLRVHGRALASTSWYRKKSGSTREETISKGGRYVETVNSGSKSFSLRINDLTVEDSGTYRCNVYGLSFGDIEGVKKIDVYGDGTAVTVNA
notes: Bivalent VNAR-Fc from Expi293 cells; also called F12-hFc; VNAR F12-hFc; not shown: human IgG1 Fc (hinge, CH2 and CH3) as encoded by vector pFUSE-hIgG1e3-Fc2
Turning to B12, the “Binding [relative units]” value in experiment [1] was 3.99 relative units. In addition, in experiment [2], the midpoint of the response, the EC50, lay at 12 nM.

B13: VNAR clone E12 fused N-terminally to human IgG1 Fc (VNAR-hFc) (Fc fusion)
chain: ARVDQTPQTITKEEGESLTINCVLRTQDPALASTSWYRKKSGSTREETISKGGRYVETVNSGSKSFSLRINDLTVEDSGTYRCNVYFLLAPTKTKLQGIDVYGDGTAVTVNA
notes: as for B1
In the case of B13, the “Binding [relative units]” value in experiment [1] amounted to 2.19 relative units. This molecule also came in with an EC50 in experiment [2] of 56 nM.

B14: VNAR clone H7 fused N-terminally to human IgG1 Fc (VNAR-hFc) (Fc fusion)
chain: ARVDQTPQTITKEEGESLTINCVLRYNNPALASTSWYRKKSGSTREETISKGGRYVETVNSGSKSFSLRINDLTVEDSGTYRCNVYFFPSFLVDKLQSHDVYGDGTAVTVNA
notes: as for B1
B14: the “Binding [relative units]” value in experiment [1] came out at 3.93 relative units. Besides, in experiment [2], the EC50 came out at 6 nM.

The values are drawn from US20250263502A1 (published 2025).
